# Source: the Human Domainome abundance scans (Beltran et al. 2025)
# ± gives the uncertainty stated by the source.
# B1: Cyclin-F, residues 28 to 80; numbered along this chain, P41002 (parent)
# chain: RNLTILSLPEDVLFHILKWLSVEDILAVRAVHSQLKDLVDNHASVWACASFQE
# Variants of: B1
# Test: abundance fitness (aPCA) (normalised: wild type 0, dead -1); higher = more abundant; growth selection in yeast, the domain comes from the species named
# Conditions: Homo sapiens
row,Variant,abundance fitness
1,V12D,-0.816 ± 0.21
2,V12G,-0.764 ± 0.15
3,V12N,-1.02 ± 0.44
4,A27C,-0.091 ± 0.11
5,A27Y,-0.876 ± 0.25
6,A27F,-0.945 ± 0.24
7,A27E,-0.715 ± 0.19
8,A27V,-0.238 ± 0.084
9,A27I,-0.285 ± 0.24
10,A27K,-0.175 ± 0.14
11,A27T,0.087 ± 0.15
12,A27W,-0.622 ± 0.14
13,H42W,-0.45 ± 0.13
14,H42I,-0.075 ± 0.25
15,H42Y,-0.365 ± 0.11
16,H42K,-0.068 ± 0.12
17,H42D,-0.746 ± 0.29
18,H42C,-0.237 ± 0.15
19,H42L,-0.546 ± 0.11
20,P9Y,-0.932 ± 0.18
21,P9E,-0.646 ± 0.12
22,P9A,-0.778 ± 0.11
23,P9S,-0.672 ± 0.11
24,P9M,-1.04 ± 0.21

row,Variant,abundance fitness
1,P9T,-0.69 ± 0.14
2,P9I,-0.847 ± 0.28
3,P9R,-0.692 ± 0.088
4,P9C,-0.676 ± 0.15
5,F14E,-0.074 ± 0.13
6,F14C,-0.162 ± 0.095
7,F14K,0.226 ± 0.093
8,F14G,-0.293 ± 0.082
9,F14P,-0.954 ± 0.2
10,F14T,0.061 ± 0.094
11,F14A,0.132 ± 0.085
12,F14L,0.179 ± 0.074
13,F14H,-0.324 ± 0.14
14,F14R,0.056 ± 0.069
15,S50N,-0.394 ± 0.27
16,S50F,-0.668 ± 0.11
17,S50K,-0.03 ± 0.13
18,S50W,-0.434 ± 0.098
19,S50M,-0.483 ± 0.17
20,F51K,-0.202 ± 0.18
21,F51I,-0.111 ± 0.17
22,F51E,-0.38 ± 0.14
23,F51Y,-0.215 ± 0.24
24,F51S,-0.194 ± 0.11

row,Variant,abundance fitness
1,S21E,-0.092 ± 0.14
2,S21L,-0.855 ± 0.12
3,S21M,-0.815 ± 0.23
4,S21H,-0.334 ± 0.19
5,S21F,-0.731 ± 0.15
6,S21G,-0.226 ± 0.1
7,S21W,-0.824 ± 0.16
8,S21P,-0.047 ± 0.12
9,S21I,-0.405 ± 0.23
10,S21A,-0.113 ± 0.1
11,N41P,-0.59 ± 0.15
12,N41F,-0.692 ± 0.19
13,N41A,-0.071 ± 0.21
14,N41G,-0.033 ± 0.11
15,N41S,0.052 ± 0.1
16,N41E,-0.039 ± 0.17
17,N41I,-0.455 ± 0.21
18,N41T,-0.131 ± 0.15
19,V31G,-0.672 ± 0.11
20,V31Q,-0.532 ± 0.15
21,V31F,-0.747 ± 0.17
22,V31A,-0.046 ± 0.089
23,V31Y,-0.964 ± 0.23
24,V31S,0.191 ± 0.09

row,Variant,abundance fitness
1,V28G,-0.759 ± 0.1
2,V28K,-0.71 ± 0.2
3,V28P,-0.88 ± 0.15
4,V28S,-0.823 ± 0.12
5,V28I,-0.184 ± 0.09
6,V28F,-0.396 ± 0.14
7,V28Q,-0.716 ± 0.2
8,V28L,0.168 ± 0.083
9,N2D,-0.306 ± 0.19
10,N2K,-0.182 ± 0.13
11,N2C,-0.357 ± 0.12
12,N2I,-0.618 ± 0.23
13,N2S,-0.129 ± 0.085
14,N2E,-0.348 ± 0.19
15,N2H,-0.065 ± 0.14
16,N2P,-0.185 ± 0.11
17,N2A,-0.492 ± 0.14
18,D24Q,-0.739 ± 0.31
19,D24V,-0.784 ± 0.15
20,D24P,-0.661 ± 0.17
21,D24I,-0.684 ± 0.24
22,D24Y,-0.544 ± 0.15
23,D24T,-0.68 ± 0.14
24,D24G,-0.624 ± 0.1

row,Variant,abundance fitness
1,D24W,-0.717 ± 0.14
2,D24S,-0.882 ± 0.12
3,D24K,-0.832 ± 0.2
4,E23M,-0.802 ± 0.24
5,E23A,-0.053 ± 0.14
6,E23N,-0.319 ± 0.21
7,E23H,-0.358 ± 0.16
8,E23L,-0.856 ± 0.15
9,E23V,-0.372 ± 0.13
10,V45N,0.031 ± 0.14
11,V45K,0.181 ± 0.12
12,V45S,0.149 ± 0.093
13,V45F,-0.016 ± 0.11
14,V45R,-0.031 ± 0.085
15,A30R,0.053 ± 0.074
16,A30N,-0.356 ± 0.21
17,A30L,0.377 ± 0.075
18,A30P,-0.844 ± 0.14
19,L35E,-0.745 ± 0.14
20,L35K,-0.805 ± 0.2
21,L35D,-0.528 ± 0.29
22,L35P,-0.842 ± 0.18
23,L35F,-0.172 ± 0.16
24,L35W,-0.567 ± 0.13

row,Variant,abundance fitness
1,L3N,-0.337 ± 0.2
2,L3H,-0.283 ± 0.15
3,L3M,-0.276 ± 0.13
4,L3R,-0.134 ± 0.077
5,L3W,-0.596 ± 0.1
6,L3E,-0.727 ± 0.16
7,L3F,-0.078 ± 0.17
8,L3G,-0.435 ± 0.079
9,L3Y,0.109 ± 0.18
10,L3I,-0.112 ± 0.17
11,I16G,-0.701 ± 0.095
12,I16W,-0.823 ± 0.17
13,I16L,-0.646 ± 0.11
14,I16Y,-0.641 ± 0.24
15,I16S,-0.664 ± 0.15
16,I16T,-0.805 ± 0.22
17,I16K,-1.11 ± 0.43
18,I16R,-0.501 ± 0.093
19,S33Y,-0.791 ± 0.12
20,S33M,-0.72 ± 0.089
21,S33W,-0.48 ± 0.078
22,S33Q,-0.672 ± 0.11
23,C48V,-0.406 ± 0.093
24,C48G,0.179 ± 0.088

row,Variant,abundance fitness
1,C48Q,-0.246 ± 0.17
2,K18D,-0.483 ± 0.19
3,K18C,-0.597 ± 0.2
4,K18P,-0.72 ± 0.17
5,K18Q,-0.081 ± 0.16
6,K18E,-0.148 ± 0.13
7,K18G,-0.132 ± 0.1
8,K18H,-0.122 ± 0.17
9,K18R,-0.14 ± 0.091
10,K18A,-0.314 ± 0.13
11,K18Y,-0.505 ± 0.22
12,V39F,-0.819 ± 0.22
13,V39L,-0.287 ± 0.1
14,V39R,-0.793 ± 0.099
15,V39S,-0.445 ± 0.12
16,H32L,-0.757 ± 0.13
17,H32S,0.096 ± 0.081
18,I25A,-0.602 ± 0.1
19,I25M,-0.346 ± 0.13
20,I25D,-0.83 ± 0.17
21,W19K,0.218 ± 0.25
22,W19R,-0.154 ± 0.097
23,W19V,-0.226 ± 0.084
